Test results from the RNAGym collection of RNA variant scans (doi:10.1021/acssynbio.7b00057).

B1: Pistol ribozyme (parent)
chain: GGGUCGUUGUUCCAUAAUCGCGUGGAUAUGGCACGCAAGUUUCUACCGGGCACCGUAAAUGUCCGACUGGAGCCGUUCGGGCGGCUAUAAACAGACCUCAGGCCCGAAGCGUGGCGGCACCUGCCGCCGGUGGUAAAAAAGAUCGGAAGAGCACACGUCU

Variants of: B1
Test: aptazyme ON/OFF ratio, guanine; higher = stronger switching; co-transcriptional cleavage with and without guanine

Variant	aptazyme ON/OFF ratio
U7C U8G G9U U10G U11A C13A	1.1
U7C U8G U10A U11C C12U C13A	1.1
U7C U8G U10A U11C C12U C13U	1.06
U7C U8G U10A U11C C12U C13G	1.18
U7C U8G G9U U10G U11C C12A C13U	1.15
U7C U8G G9U U10G U11C C12A C13A	1.11
U7C U8G G9U U10G U11C C12A C13G	1.06
U7C U8G G9U U10C U11A C12U	1.41
U7C U8G G9U U10C U11A C12G	1.26
U7C U8G G9U U10C U11A C12A	1.43
U7C U8G U10A U11C C12G	1.18
U7C U8G U10A U11C C12A	1.13
U7C U8G U10A U11C C12U	1.04
U7C U8G G9U U10G	1.28
U7C U8G G9U U10C	2.72
U7C U8G U10A U11A C12A C13G	1.12
U7C U8G U10A U11A C12A C13U	1.18
U7C U8G U10A U11A C12A C13A	1.1
U7C U8G G9U U10G U11G C12A C13G	1.05
U7C U8G G9U U10G U11G C12A C13U	1.19
U7C U8G G9U U10G U11G C12A C13A	1.1

Variant	aptazyme ON/OFF ratio
U7C U8G U10A U11G C13A	1.11
U7C U8G U10A U11G C13U	1.28
U7C U8G U10A U11G C13G	1.06
U7C U8G U10C U11A C12U C13G	1.11
U7C U8G U10C U11A C12U C13U	1.24
U7C U8G U10C U11A C12U C13A	1.15
U7C U8G G9U U11G C12U	1.27
U7C U8G G9U U11G C12G	1.35
U7C U8G G9U U11G C12A	1.27
U7C U8G G9U U11A C12G C13G	1.09
U7C U8G G9U U11A C12G C13A	1.05
U7C U8G G9U U11A C12G C13U	1.08
U7C U8G U10C U11A C12G C13U	1.08
U7C U8G U10C U11A C12G C13A	1.07
U7C U8G U10C U11A C12G C13G	1.12
U7C U8G G9U U11G C13U	1.21
U7C U8G G9U U11G C13G	1.04
U7C U8G G9U U11G C13A	1.21
U7C U8G G9U U10C U11C C12G C13U	1.04
U7C U8G G9U U10C U11C C12G C13G	1.08
U7C U8G G9U U10C U11C C12G C13A	1.13

Variant	aptazyme ON/OFF ratio
U7C U8G U10C U11A C12A C13A	1.19
U7C U8G U10C U11A C12A C13U	1.33
U7C U8G U10C U11A C12A C13G	1.14
U7C U8G G9U U10C C13A	1.15
U7C U8G G9U U10C C13U	2.24
U7C U8G G9U U10C C13G	1.13
U7C U8G U10A U11C C13A	1.02
U7C U8G U10A U11C C13G	1.03
U7C U8G U10A U11C C13U	1.01
U7C U8G G9U U10A C12U C13U	1.35
U7C U8G G9U U10A C12U C13G	1.2
U7C U8G G9U U10A C12U C13A	1.2
U7C U8G G9U U10G C12G C13U	1.07
U7C U8G G9U U10G C12G C13A	1.07
U7C U8G G9U U10G C12G C13G	1.08
U7C U8G U10A U11A C12A	1.14
U7C U8G U10A U11A C12U	1.57
U7C U8G U10A U11A C12G	1.08
U7C U8G G9U U11C C12U	1.21
U7C U8G G9U U11C C12G	1.32
U7C U8G G9U U11C C12A	1.41

Variant	aptazyme ON/OFF ratio
U7C U8G G9U U10C U11A C12G C13A	1.14
U7C U8G G9U U10C U11A C12G C13U	1.2
U7C U8G G9U U10C U11A C12G C13G	1.21
U7C U8G G9U U10G C12A C13G	1.09
U7C U8G G9U U10G C12A C13U	1.15
U7C U8G G9U U10G C12A C13A	1.12
U7C U8G G9U U10G U11A C12U	1.13
U7C U8G G9U U10G U11A C12G	1.17
U7C U8G G9U U10G U11A C12A	1.25
U7C U8G G9U U10A U11A C12A	1.25
U7C U8G G9U U10A U11A C12G	1.11
U7C U8G G9U U10A U11A C12U	1.33
U7C U8G G9U U10C U11A C12U C13A	1.24
U7C U8G G9U U10C U11A C12U C13G	1.27
U7C U8G G9U U10C U11A C12U C13U	1.34
U7C U8G U10C U11C C12A C13U	1.15
U7C U8G U10C U11C C12A C13A	1.16
U7C U8G U10C U11C C12A C13G	1.14
U7C U8G G9U U10A U11C C13U	1.02
U7C U8G G9U U10A U11C C13G	1.05
U7C U8G G9U U10A U11C C13A	1.05
